# GalNAc = N-acetylgalactosamine
# T1: a-Dystroglycan peptide Ac-PPTTTTKKP-NH2 (chart ID 9)
# T1 peptide: Ac-PPTTTTKKP-NH2
# T2: Peptide-4 H2N-KTTT-CONH2 (chart ID 21)
# T2 peptide: H-KTTT-NH2
# T3: Peptide-5 H2N-KTTTG-CONH2 (chart ID 22)
# T3 peptide: H-KTTTG-NH2
# T4: MUC1-1R peptide H2N-TSAPDTRDAP-NH2 (chart ID 15)
# T4 peptide: H-TSAPDTRDAP-NH2
# T5: EA2-R peptide Ac-PTTDSTTPAPTTK-NH2 (chart ID 12)
# T5 peptide: Ac-PTTDSTTPAPTTK-NH2
# T6: MUC1-1 glycopeptide H2N-TSAPDT*RDAP-NH2 (chart ID 14)
# T6 peptide: H-TSAPDT(GalNAc)RDAP-NH2
# T7: EA2 glycopeptide Ac-PTTDSTT*PAPTTK-NH2 (chart ID 11)
# T7 peptide: Ac-PTTDSTT(GalNAc)PAPTTK-NH2
# T8: a-Dystroglycan glycopeptide Ac-PPT*T*T*T*KKP-HN2 (chart ID 13)
# T8 peptide: Ac-PPT(GalNAc)T(GalNAc)T(GalNAc)T(GalNAc)KKP-NH2
# T9: MUC5AC glycopeptide H2N-GTTPSPVPT*TSTTSAP-OH (chart ID 10)
# T9 peptide: H-GTTPSPVPT(GalNAc)TSTTSAP-OH
# T10: C-MUC2 glycopeptide Ac-PTTT*PLK-NH2 (chart ID 3)
# T10 peptide: Ac-PTTT(GalNAc)PLK-NH2
# T11: F-MUC2 glycopeptide Ac-PTT*T*PLK-NH2 (chart ID 6)
# T11 construct: also called double-Tn-MUC2; bar label T*T*
# T11 peptide: Ac-PTT(GalNAc)T(GalNAc)PLK-NH2
# T12: A-MUC2 glycopeptide Ac-PT*TTPLK-NH2 (chart ID 1)
# T12 peptide: Ac-PT(GalNAc)TTPLK-NH2
# T13: B-MUC2 glycopeptide Ac-PTT*TPLK-NH2 (chart ID 2)
# T13 peptide: Ac-PTT(GalNAc)TPLK-NH2
# T14: D-MUC2 glycopeptide Ac-PT*T*TPLK-NH2 (chart ID 4)
# T14 peptide: Ac-PT(GalNAc)T(GalNAc)TPLK-NH2
# B1: Remab6, recombinant human chimeric IgG1 anti-Tn antibody (antibody)
# heavy: not shown
# light: QIVLTQSPAIMSSSPGEKVALSCSASSSVSYVYWYQQKPGSSPKPWIYRTSNLASGVPARFSGSGSGTSYSLTISSMEAEDAATYYCQQYHSYPFTFGSGTKLEIKRTVAAPSVFIFPPSDEQLKSGTASVVCLLNNFYPREAKVQWKVDNALQSGNSQESVTEQDSKDSTYSLSSTLTLSKADYEKHKVYACEVTHQGLSSPVTKSFNRGEC
# notes: Mouse variable regions engineered from BaGs6 with human IgG1 and kappa constant regions; expressed in HEK293 Freestyle cells; also called Remab6-WT; hIgG1
# B2: PNA (other)
# chain: AETVSFNFNSFSEGNPAINFQGDVTVLSNGNIQLTNLNKVNSVGRVLYAMPVRIWSSATGNVASFLTSFSFEMKDIKDYDPADGIIFFIAPEDTQIPAGSIGGGTLGVSDTKGAGHFVGVEFDTYSNSEYNDPPTDHVGIDVNSVDSVKTVPWNSVSGAVVKVTVIYDSSTKTLSVAVTNDNGDITTIAQVVDLKAKLPERVKFGFSASGSLGGRQIHLIRSWSFTSTLITTTRRSIDNNEKKIMNMASA
# modifications: Biotinylated at unspecified positions. The native lectin is a homotetramer; one subunit is given.
# notes: also called biotinylated PNA; Peanut agglutinin
# B3: ReBaGs6, recombinant murine IgM anti-Tn antibody (antibody)
# heavy: DTMLQQSDAELVKPGASVKMSCKASGYTFTDHAIHWVKQKPEQGLEWIGYVSPGNGDIKYNEKFKGKATLSADKSSSTAYMQLNSLTSEDSAVYFCKRSYGSFDYWGQGTTLTVSSESQSFPNVFPLVSCESPLSDKNLVAMGCLARDFLPSTISFTWNYQNNTEVIQGIRTFPTLRTGGKYLATSQVLLSPKSILEGSDEYLVCKIHYGGKNRDLHVPIPAVAEMNPNVNVFVPPRDGFSGPAPRKSKLICEATNFTPKPITVSWLKDGKLVESGFTTDPVTIENKGSTPQTYKVISTLTISEIDWLNLNVYTCRVDHRGLTFLKNVSSTCAASPSTDILTFTIPPSFADIFLSKSANLTCLVSNLATYETLNISWASQSGEPLETKIKIMESHPNGTFSAKGVASVCVEDWNNRKEFVCTVTHRDLPSPQKKFISKPNEVHKHPPAVYLLPPAREQLNLRESATVTCLVKGFSPADISVQWLQRGQLLPQEKYVTSAPMPEPGAPGFYFTHSILTVTEEEWNSGETYTCVVGHEALPHLVTERTVDKSTGKPTLYNVSLIMSDTGGTCY
# light: QIVLTQSPAIMSSSPGEKVALSCSASSSVSYVYWYQQKPGSSPKPWIYRTSNLASGVPARFSGSGSGTSYSLTISSMEAEDAATYYCQQYHSYPFTFGSGTKLEIKRADAAPTVSIFPPSSEQLTSGGASVVCFLNNFYPKDINVKWKIDGSERQNGVLNSWTDQDSKDSTYSMSSTLTLTKDEYERHNSYTCEATHKTSTSPIVKSFNRNEC
# notes: Mouse IgM (mu heavy chain, kappa light chain); also called ReGs6; mIgM
# B4: BaGs6, murine IgM anti-Tn monoclonal antibody from mouse ascites (antibody, V domains shown)
# VH: DTMLQQSDAELVKPGASVKMSCKASGYTFTDHAIHWVKQKPEQGLEWIGYVSPGNGDIKYNEKFKGKATLSADKSSSTAYMQLNSLTSEDSAVYFCKRSYGSFDYWGQGTTLTVSS
# VL: QIVLTQSPAIMSSSPGEKVALSCSASSSVSYVYWYQQKPGSSPKPWIYRTSNLASGVPARFSGSGSGTSYSLTISSMEAEDAATYYCQQYHSYPFTFGSGTKLEIKR
# notes: Natural mouse IgM used as ascites fluid; also called Ca3638; anti-Tn ascites
# How the values were obtained:
# [1] = target: T1, a-Dystroglycan peptide Ac-PPTTTTKKP-NH2 …; test: Tn glycopeptide microarray, Alexa Fluor 488 goat anti-human IgG
# Description: (§1) The Tn glycopeptide microarray was prepared as previously described (25). The Consortium for Functional Glycomics (CFG) glycan microarray version 5.0 was used (www.functionalglycomics.org) (26). […] Slides were washed four times with TSM wash buffer 1 (20 mM Tris-HCl, pH 7.4, 150 mM NaCl, 2 mM CaCl₂), 2 mM MgCl2 and 0.05% Tween-20), and washed four times with TSM wash buffer 2 (20 mM Tris-HCl, pH 7.4, 150 mM NaCl, 2 mM CaCl2) and 2 mM MgCl2). Alexa Fluor® 488-labeled goat anti-human IgG or goat anti-mouse IgM secondary (diluted to 5 μg/ml) were used for detection. After washing as above, slides were washed once in water and dried before being read on a Genepix® 4300A microarray scanner (Molecular Devices). Images were analyzed with quantitation software (GenePix® Pro Microarray Analysis Software Ver. 7, Molecular Devices).
# [2] = target: T2, Peptide-4 H2N-KTTT-CONH2 (chart ID 21); test: as above
# Description: as §1
# [3] = target: T3, Peptide-5 H2N-KTTTG-CONH2 (chart ID 22); test: as above
# Description: as §1
# [4] = target: T4, MUC1-1R peptide H2N-TSAPDTRDAP-NH2 …; test: as above
# Description: as §1
# [5] = target: T5, EA2-R peptide Ac-PTTDSTTPAPTTK-NH2 …; test: as above
# Description: as §1
# [6] = target: T6, MUC1-1 glycopeptide H2N-TSAPDT*RDAP-NH2 …; test: as above
# Description: as §1
# [7] = target: T7, EA2 glycopeptide Ac-PTTDSTT*PAPTTK-NH2 …; test: as above
# Description: as §1
# [8] = target: T8, a-Dystroglycan glycopeptide …; test: as above
# Description: as §1
# [9] = target: T9, MUC5AC glycopeptide …; test: as above
# Description: as §1
# [10] = target: T15, Asialo-BSM (desialylated bovine submaxillary mucin) (bovine); test: plate binding assay, Asialo-BSM coated on 96-well plate, serial dilution of antibody, fluorescent secondary antibody
# T15 construct: also called desialylated BSM; Asialo-BSM beads
# [11] = target: T10, C-MUC2 glycopeptide Ac-PTTT*PLK-NH2 …; test: Tn glycopeptide microarray probed with biotinylated PNA and Alexa488-streptavidin
# [12] = target: T11, F-MUC2 glycopeptide Ac-PTT*T*PLK-NH2 …; test: as above
# [13] = target: T12, A-MUC2 glycopeptide Ac-PT*TTPLK-NH2 …; test: as above
# [14] = target: T13, B-MUC2 glycopeptide Ac-PTT*TPLK-NH2 …; test: as above
# [15] = target: T14, D-MUC2 glycopeptide Ac-PT*T*TPLK-NH2 …; test: as above
# [16] = target: T1, a-Dystroglycan peptide Ac-PPTTTTKKP-NH2 …; test: Tn glycopeptide microarray, Alexa Fluor 488 goat anti-mouse IgM
# Description: as §1
# [17] = target: T2, Peptide-4 H2N-KTTT-CONH2 (chart ID 21); test: as above
# Description: as §1
# [18] = target: T3, Peptide-5 H2N-KTTTG-CONH2 (chart ID 22); test: as above
# Description: as §1
# [19] = target: T4, MUC1-1R peptide H2N-TSAPDTRDAP-NH2 …; test: as above
# Description: as §1
# [20] = target: T6, MUC1-1 glycopeptide H2N-TSAPDT*RDAP-NH2 …; test: as above
# Description: as §1
# [21] = target: T8, a-Dystroglycan glycopeptide …; test: as above
# Description: as §1
# [22] = target: T5, EA2-R peptide Ac-PTTDSTTPAPTTK-NH2 …; test: as above
# Description: as §1
# [23] = target: T7, EA2 glycopeptide Ac-PTTDSTT*PAPTTK-NH2 …; test: as above
# Description: as §1
# [24] = target: T9, MUC5AC glycopeptide …; test: as above
# Description: as §1
binder,measurement,setting,value
B1,binding result,[1],no binding (tested: 5 µg/ml (text paragraph 261))
same,binding result,[2],no binding (tested: 5 µg/ml (text paragraph 261))
same,binding result,[3],no binding (tested: 5 µg/ml (text paragraph 261))
same,binding result,[4],no binding (tested: 5 µg/ml (text paragraph 261))
same,binding result,[5],no binding (tested: 5 µg/ml (text paragraph 261))
same,binding result,[6],no binding (tested: 5 µg/ml (text paragraph 261))
same,binding result,[7],no binding (tested: 5 µg/ml (text paragraph 261))
same,binding result,[8],no binding (tested: 5 µg/ml (text paragraph 261))
same,binding result,[9],no binding (tested: 5 µg/ml (text paragraph 261))
same,Kd,[10],829 nM
B2,binding result,[11],no binding
same,binding result,[12],no binding
same,binding result,[13],no binding
same,binding result,[14],no binding
same,binding result,[15],no binding
B3,binding result,[16],no binding (tested: 20 or 2 µg/ml (text paragraph 261))
same,binding result,[17],no binding (tested: 20 or 2 µg/ml (text paragraph 261))
same,binding result,[18],no binding (tested: 20 or 2 µg/ml (text paragraph 261))
same,binding result,[19],no binding (tested: 20 or 2 µg/ml (text paragraph 261))
same,binding result,[20],no binding (tested: 20 or 2 µg/ml (text paragraph 261))
same,binding result,[21],no binding (tested: 20 or 2 µg/ml (text paragraph 261))
same,Kd,[10],54.3 nM
B4,binding result,[17],no binding (tested: 1:200 dilution (text paragraph 261))
same,binding result,[18],no binding (tested: 1:200 dilution (text paragraph 261))
same,binding result,[19],no binding (tested: 1:200 dilution (text paragraph 261))
same,binding result,[22],no binding (tested: 1:200 dilution (text paragraph 261))
same,binding result,[20],no binding (tested: 1:200 dilution (text paragraph 261))
same,binding result,[23],no binding (tested: 1:200 dilution (text paragraph 261))
same,binding result,[21],no binding (tested: 1:200 dilution (text paragraph 261))
same,binding result,[24],no binding (tested: 1:200 dilution (text paragraph 261))
